The text below walks through data of patent US20100247549A1.

In assay [1] the target is Envelope glycoprotein (E) of parental DENV-4 (FRhL) (dengue virus type 4) (UniProt P09866).
In assay [2] the target is Envelope glycoprotein (E) of antigenic variant DENV-4 v4 (Leu for Pro at position 176 in E) (dengue virus type 4) (UniProt P09866).
In assay [3] the target is Envelope glycoprotein (E) of antigenic variant DENV-4 v3 (Glu for Lys at position 174 in E) (dengue virus type 4) (UniProt P09866). Briefly: cell-based or functional assay.
Assay [4] deals with Envelope glycoprotein (E) of antigenic variant DENV-4 v4 (Leu for Pro at position 176 in E) (dengue virus type 4) (UniProt P09866). Briefly: cell-based or functional assay.
Assay [5] deals with Fc receptors on K562 cells. Briefly: cell-based or functional assay.

pKd: −log10 of the molar value.

Turning to “Humanized IgG 5H2 ΔD (IgG1 5H2 with a 9-amino-acid deletion, positions 231-239, at the N-terminus of the CH2 domain) (antibody)”, the pKd in assay [1] was 9.64; in assay [2] it was 9.49. Further, the values for the PRNT50 titer in assay [3] and in assay [4] were over 10 µg/mL and 0.5 µg/mL, respectively.

Turning to “IgG 1A5 ΔA (replacement amino acids at 327, 330 and 331 from the Fc of IgG4) (from UniProt P01857 1-330) (antibody)”, the enhancing activity of DENV-4 infection in K562 cells, % of cells infected in assay [5] was 37.6%.

Consider “IgG 1A5 ΔB (replacement amino acids at 233-236 from the Fc of IgG2) (from UniProt P01857 1-330) (antibody)”, for which the enhancing activity of DENV-4 infection in K562 cells, % of cells infected in assay [5] came out at 24%. The same measure, in the same setting: then “IgG 1A5 ΔC (replacements of both variants ΔA and ΔB) (from UniProt P01857 1-330) (antibody)”, with 18.8%.

By pKd is commonly meant the negative decadic logarithm of the Kd, by convention in mol/L.
